The values that follow are results of earlier work, collected in patent US11878044B2, “Combination therapy for ischemia” (NoNO Inc., priority 2011, dated 2024).

For the series, the target named is binding of NMDAR 2B to PSD-95 (Homo sapiens, UniProt P78352). The note with it: reported by Bach.
Sequence of binding of NMDAR 2B to PSD-95 (P78352 whole entry): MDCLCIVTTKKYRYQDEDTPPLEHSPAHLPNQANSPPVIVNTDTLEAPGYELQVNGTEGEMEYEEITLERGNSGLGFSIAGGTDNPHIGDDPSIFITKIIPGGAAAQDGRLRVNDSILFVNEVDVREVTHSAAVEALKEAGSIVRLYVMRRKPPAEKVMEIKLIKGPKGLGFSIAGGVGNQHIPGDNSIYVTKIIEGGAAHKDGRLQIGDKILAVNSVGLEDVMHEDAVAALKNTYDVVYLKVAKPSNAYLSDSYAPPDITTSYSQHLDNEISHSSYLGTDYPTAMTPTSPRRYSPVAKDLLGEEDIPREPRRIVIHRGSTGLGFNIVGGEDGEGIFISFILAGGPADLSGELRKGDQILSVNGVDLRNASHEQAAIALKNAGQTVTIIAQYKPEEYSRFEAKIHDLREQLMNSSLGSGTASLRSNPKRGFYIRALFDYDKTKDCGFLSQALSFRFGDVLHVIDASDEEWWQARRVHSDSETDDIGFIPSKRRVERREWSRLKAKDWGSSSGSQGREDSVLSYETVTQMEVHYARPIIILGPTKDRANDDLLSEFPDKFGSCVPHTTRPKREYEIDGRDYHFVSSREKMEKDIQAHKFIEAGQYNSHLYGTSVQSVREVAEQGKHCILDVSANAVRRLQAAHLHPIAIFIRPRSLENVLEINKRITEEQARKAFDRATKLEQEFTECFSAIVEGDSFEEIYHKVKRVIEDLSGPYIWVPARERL

Regarding IESDV, the “inhibiting binding of NMDAR 2B to PSD-95” value is “effective in inhibiting binding of NMDAR 2B to PSD-95”.
